We go through four variants from IntAct's records for PubMed 16368681.

The labels stand for the following.
B1: Protein disulfide-isomerase (Saccharomyces cerevisiae), P17967 (parent)
chain: MKFSAGAVLSWSSLLLASSVFAQQEAVAPEDSAVVKLATDSFNEYIQSHDLVLAEFFAPWCGHCKNMAPEYVKAAETLVEKNITLAQIDCTENQDLCMEHNIPGFPSLKIFKNSDVNNSIDYEGPRTAEAIVQFMIKQSQPAVAVVADLPAYLANETFVTPVIVQSGKIDADFNATFYSMANKHFNDYDFVSAENADDDFKLSIYLPSAMDEPVVYNGKKADIADADVFEKWLQVEALPYFGEIDGSVFAQYVESGLPLGYLFYNDEEELEEYKPLFTELAKKNRGLMNFVSIDARKFGRHAGNLNMKEQFPLFAIHDMTEDLKYGLPQLSEEAFDELSDKIVLESKAIESLVKDFLKGDASPIVKSQEIFENQDSSVFQLVGKNHDEIVNDPKKDVLVLYYAPWCGHCKRLAPTYQELADTYANATSDVLIAKLDHTENDVRGVVIEGYPTIVLYPGGKKSESVVYQGSRSLDSLFDFIKENGHFDVDGKALYEEAQEKAAEEADADAELADEEDAIHDEL
partner: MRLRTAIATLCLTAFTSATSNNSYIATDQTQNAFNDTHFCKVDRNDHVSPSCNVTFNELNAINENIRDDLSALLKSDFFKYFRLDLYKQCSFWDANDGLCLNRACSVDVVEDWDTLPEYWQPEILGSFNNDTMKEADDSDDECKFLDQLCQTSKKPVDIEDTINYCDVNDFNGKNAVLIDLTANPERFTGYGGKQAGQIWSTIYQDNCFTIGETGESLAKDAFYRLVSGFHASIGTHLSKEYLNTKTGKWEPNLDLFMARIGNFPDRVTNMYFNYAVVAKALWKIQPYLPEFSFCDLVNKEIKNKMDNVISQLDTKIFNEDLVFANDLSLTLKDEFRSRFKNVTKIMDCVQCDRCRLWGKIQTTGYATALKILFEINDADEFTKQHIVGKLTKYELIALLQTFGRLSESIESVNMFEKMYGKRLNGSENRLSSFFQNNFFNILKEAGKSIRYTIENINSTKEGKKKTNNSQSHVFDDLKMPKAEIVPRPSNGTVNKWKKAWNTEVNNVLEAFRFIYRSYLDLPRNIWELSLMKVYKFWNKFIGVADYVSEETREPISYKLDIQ
B2: Protein disulfide-isomerase (Saccharomyces cerevisiae), P17967 (parent)
chain: B1 chain

The variants in the first test derive from B1. Particulars: with ero1_yeast ERO1, Q03103.
Turning to MKFSAGAVLSWSSLLLASSVFAQQEAVAPEDSAVVKLATDSFNEYIQSHDLVLAEFFAPWCGHCKNMAPEYVKAAETLVEKNITLAQIDCTENQDLCMEHNIPGFPSLKIFKNSDVNNSIDYEGPRTAEAIVQFMIKQSQPAVAVVADLPAYLANETFVTPVIVQSGKIDADFNATFYSMANKHFNDYDFVSAENADDDFKLSIYLPSAMDEPVVYNGKKADIADADVFEKWLQVEALPYFGEIDGSVFAQYVESGLPLGYLFYNDEEELEEYKPLFTELAKKNRGLMNFVSIDARKFGRHAGNLNMKEQFPLFAIHDMTEDLKYGLPQLSEEAFDELSDKIVLESKAIESLVKDFLKGDASPIVKSQEIFENQDSSVFQLVGKNHDEIVNDPKKDVLVLYYAPWAGHAKRLAPTYQELADTYANATSDVLIAKLDHTENDVRGVVIEGYPTIVLYPGGKKSESVVYQGSRSLDSLFDFIKENGHFDVDGKALYEEAQEKAAEEADADAELADEEDAIHDEL [C406A;C409A], the “effect of a mutation on the interaction” value is given as “decreasing interaction”.

As for MKFSAGAVLSWSSLLLASSVFAQQEAVAPEDSAVVKLATDSFNEYIQSHDLVLAEFFAPWAGHAKNMAPEYVKAAETLVEKNITLAQIDCTENQDLCMEHNIPGFPSLKIFKNSDVNNSIDYEGPRTAEAIVQFMIKQSQPAVAVVADLPAYLANETFVTPVIVQSGKIDADFNATFYSMANKHFNDYDFVSAENADDDFKLSIYLPSAMDEPVVYNGKKADIADADVFEKWLQVEALPYFGEIDGSVFAQYVESGLPLGYLFYNDEEELEEYKPLFTELAKKNRGLMNFVSIDARKFGRHAGNLNMKEQFPLFAIHDMTEDLKYGLPQLSEEAFDELSDKIVLESKAIESLVKDFLKGDASPIVKSQEIFENQDSSVFQLVGKNHDEIVNDPKKDVLVLYYAPWCGHCKRLAPTYQELADTYANATSDVLIAKLDHTENDVRGVVIEGYPTIVLYPGGKKSESVVYQGSRSLDSLFDFIKENGHFDVDGKALYEEAQEKAAEEADADAELADEEDAIHDEL [C61A;C64A], the “effect of a mutation on the interaction” value is on record as “decreasing interaction”.

A further test covers variants of B2. To be noted: with rnas1_bovin RNASE1, P61823.
Sequence of rnas1_bovin RNASE1, P61823 (P61823 whole entry): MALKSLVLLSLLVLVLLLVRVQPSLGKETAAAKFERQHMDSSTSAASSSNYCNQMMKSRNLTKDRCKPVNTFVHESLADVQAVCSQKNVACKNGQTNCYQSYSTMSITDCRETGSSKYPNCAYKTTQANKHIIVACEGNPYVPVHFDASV
On to MKFSAGAVLSWSSLLLASSVFAQQEAVAPEDSAVVKLATDSFNEYIQSHDLVLAEFFAPWAGHAKNMAPEYVKAAETLVEKNITLAQIDCTENQDLCMEHNIPGFPSLKIFKNSDVNNSIDYEGPRTAEAIVQFMIKQSQPAVAVVADLPAYLANETFVTPVIVQSGKIDADFNATFYSMANKHFNDYDFVSAENADDDFKLSIYLPSAMDEPVVYNGKKADIADADVFEKWLQVEALPYFGEIDGSVFAQYVESGLPLGYLFYNDEEELEEYKPLFTELAKKNRGLMNFVSIDARKFGRHAGNLNMKEQFPLFAIHDMTEDLKYGLPQLSEEAFDELSDKIVLESKAIESLVKDFLKGDASPIVKSQEIFENQDSSVFQLVGKNHDEIVNDPKKDVLVLYYAPWCGHCKRLAPTYQELADTYANATSDVLIAKLDHTENDVRGVVIEGYPTIVLYPGGKKSESVVYQGSRSLDSLFDFIKENGHFDVDGKALYEEAQEKAAEEADADAELADEEDAIHDEL [C61A;C64A], for which the “effect of a mutation on the interaction” value is on record as “decreasing interaction”. Still for that read-out and setting: the result for MKFSAGAVLSWSSLLLASSVFAQQEAVAPEDSAVVKLATDSFNEYIQSHDLVLAEFFAPWCGHCKNMAPEYVKAAETLVEKNITLAQIDCTENQDLCMEHNIPGFPSLKIFKNSDVNNSIDYEGPRTAEAIVQFMIKQSQPAVAVVADLPAYLANETFVTPVIVQSGKIDADFNATFYSMANKHFNDYDFVSAENADDDFKLSIYLPSAMDEPVVYNGKKADIADADVFEKWLQVEALPYFGEIDGSVFAQYVESGLPLGYLFYNDEEELEEYKPLFTELAKKNRGLMNFVSIDARKFGRHAGNLNMKEQFPLFAIHDMTEDLKYGLPQLSEEAFDELSDKIVLESKAIESLVKDFLKGDASPIVKSQEIFENQDSSVFQLVGKNHDEIVNDPKKDVLVLYYAPWAGHAKRLAPTYQELADTYANATSDVLIAKLDHTENDVRGVVIEGYPTIVLYPGGKKSESVVYQGSRSLDSLFDFIKENGHFDVDGKALYEEAQEKAAEEADADAELADEEDAIHDEL [C406A;C409A] reads “decreasing interaction”.
